From paper PMC5531557, “Crystal structure and kinetic analysis of the class B3 di-zinc metallo-β-lactamase LRA-12 from an Alaskan soil metagenome” (PLoS ONE, 2017)

What was measured:
LRA-12 [1] = molecular target: T1, LRA-12 (uncultured bacterium BLR12, UniProt B5L5V5); assay: residual ertapenem hydrolysis, UV absorbance; format: biochemical
T1 construct: gene blaLRA-12; pET28a(+) in E. coli BL21(DE3), N-terminal His tag cut by thrombin; mature enzyme of 269 residues (Gln26-Asn306 in BBL numbering); di-zinc

LRA-12 [2] = molecular target: T1, LRA-12; assay: competition with ceftazidime hydrolysis, UV absorbance; format: biochemical
[3] = system: C[C@@H](O)[C@H]1C(=O)N2C(C(=O)O)=C(S[C@@H]3CN[C@H](C(=O)Nc4cccc(C(=O)O)c4)C3)[C@H](C)[C@H]12; assay: purified protein; format: biochemical, uncultured bacterium BLR12; conditions: 10 mM HEPES, 20 mM NaCl, pH 7.5, room temperature
[4] = system: CO/N=C(\C(=O)N[C@@H]1C(=O)N2C(C(=O)[O-])=C(C[N+]3(C)CCCC3)CS[C@H]12)c1csc(N)n1; assay: purified protein; format: biochemical, uncultured bacterium BLR12; conditions: 10 mM HEPES, 20 mM NaCl, pH 7.5, room temperature
[5] = system: CC(C)(O/N=C(\C(=O)N[C@@H]1C(=O)N2C(C(=O)[O-])=C(C[n+]3ccccc3)CS[C@H]12)c1csc(N)n1)C(=O)O; assay: purified protein; format: biochemical, uncultured bacterium BLR12; conditions: 10 mM HEPES, 20 mM NaCl, pH 7.5, room temperature
[6] = system: C[C@@H](O)[C@H]1C(=O)N2C(C(=O)O)=C(S[C@@H]3CN[C@H](C(=O)N(C)C)C3)[C@H](C)[C@H]12; assay: purified protein; format: biochemical, uncultured bacterium BLR12; conditions: 10 mM HEPES, 20 mM NaCl, pH 7.5, room temperature
[7] = system: CCN1CCN(C(=O)N[C@@H](C(=O)N[C@@H]2C(=O)N3[C@@H]2SC(C)(C)[C@@H]3C(=O)O)c2ccccc2)C(=O)C1=O; assay: purified protein; format: biochemical, uncultured bacterium BLR12; conditions: 10 mM HEPES, 20 mM NaCl, pH 7.5, room temperature
[8] = system: CO[C@@]1(NC(=O)Cc2cccs2)C(=O)N2C(C(=O)O)=C(COC(N)=O)CS[C@@H]21; assay: purified protein; format: biochemical, uncultured bacterium BLR12; conditions: 10 mM HEPES, 20 mM NaCl, pH 7.5, room temperature
[9] = system: CC1(C)S[C@@H]2[C@H](NC(=O)Cc3ccccc3)C(=O)N2[C@H]1C(=O)O; assay: purified protein; format: biochemical, uncultured bacterium BLR12; conditions: 10 mM HEPES, 20 mM NaCl, pH 7.5, room temperature
[10] = system: C[C@@H](O)[C@H]1C(=O)N2C(C(=O)O)=C(SCCN=CN)C[C@H]12; assay: purified protein; format: biochemical, uncultured bacterium BLR12; conditions: 10 mM HEPES, 20 mM NaCl, pH 7.5, room temperature
[11] = system: CO/N=C(\C(=O)N[C@@H]1C(=O)N2C(C(=O)O)=C(COC(N)=O)CS[C@H]12)c1ccco1; assay: purified protein; format: biochemical, uncultured bacterium BLR12; conditions: 10 mM HEPES, 20 mM NaCl, pH 7.5, room temperature
[12] = system: CC(=O)OCC1=C(C(=O)O)N2C(=O)[C@@H](NC(=O)Cc3cccs3)[C@H]2SC1; assay: purified protein; format: biochemical, uncultured bacterium BLR12; conditions: 10 mM HEPES, 20 mM NaCl, pH 7.5, room temperature
[13] = system: CO/N=C(\C(=O)N[C@@H]1C(=O)N2C(C(=O)O)=C(COC(C)=O)CS[C@H]12)c1csc(N)n1; assay: purified protein; format: biochemical, uncultured bacterium BLR12; conditions: 10 mM HEPES, 20 mM NaCl, pH 7.5, room temperature

T1 sequence (B5L5V5 entry or part of it): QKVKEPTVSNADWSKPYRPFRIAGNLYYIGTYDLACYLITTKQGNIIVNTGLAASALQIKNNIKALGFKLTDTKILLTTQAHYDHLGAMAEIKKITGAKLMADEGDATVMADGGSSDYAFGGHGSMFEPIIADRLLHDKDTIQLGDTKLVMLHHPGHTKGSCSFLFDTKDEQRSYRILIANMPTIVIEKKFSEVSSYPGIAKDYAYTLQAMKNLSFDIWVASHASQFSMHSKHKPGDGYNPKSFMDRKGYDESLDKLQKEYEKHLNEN

## O=C(O)c1cccc(C(=O)O)n1 [DPA, pyridine-2,6-dicarboxylic acid]
LRA-12 [1]
  IC50: 460 µM

## O=C(O)CN(CCN(CC(=O)O)CC(=O)O)CC(=O)O [EDTA]
LRA-12 [1]
  IC50: 113 µM

## C[C@H]1[C@H](NC(=O)/C(=N\OC(C)(C)C(=O)O)c2csc(N)n2)C(=O)N1S(=O)(=O)O [aztreonam]
LRA-12 [2]
  Ki: 146 µM

## LRA-12 (uncultured bacterium BLR12)
[3]
  Km: 43 ± 6 µM
  kcat: 57 ± 4 s⁻¹
  kcat/Km: 1.33e+06 ± 270000 M⁻¹ s⁻¹
[4]
  Km: 93 ± 13 µM
  kcat: 15 ± 1.4 s⁻¹
  kcat/Km: 160000 ± 40000 M⁻¹ s⁻¹
[5]
  Km: 59 ± 8 µM
  kcat: 12 ± 0.8 s⁻¹
  kcat/Km: 200000 ± 40000 M⁻¹ s⁻¹
[6]
  Km: 113 ± 20 µM
  kcat: 95 ± 11 s⁻¹
  kcat/Km: 840000 ± 230000 M⁻¹ s⁻¹
[7]
  Km: 83 ± 9 µM
  kcat: 74 ± 3 s⁻¹
  kcat/Km: 890000 ± 130000 M⁻¹ s⁻¹
[8]
  Km: 4 ± 0.6 µM
  kcat: 7 ± 0.4 s⁻¹
  kcat/Km: 1.75e+06 ± 320000 M⁻¹ s⁻¹
[9]
  Km: 47 ± 4 µM
  kcat: 70 ± 2 s⁻¹
  kcat/Km: 1.49e+06 ± 150000 M⁻¹ s⁻¹
[10]
  Km: 39 ± 7 µM
  kcat: 66 ± 5 s⁻¹
  kcat/Km: 1.69e+06 ± 420000 M⁻¹ s⁻¹
[11]
  Km: 20 ± 3.4 µM
  kcat: 16 ± 0.9 s⁻¹
  kcat/Km: 800000 ± 190000 M⁻¹ s⁻¹
[12]
  Km: 11 ± 2 µM
  kcat: 18 ± 0.8 s⁻¹
  kcat/Km: 1.64e+06 ± 370000 M⁻¹ s⁻¹
[13]
  Km: 36 ± 4 µM
  kcat: 7 ± 0.3 s⁻¹
  kcat/Km: 190000 ± 30000 M⁻¹ s⁻¹
